The target of one data set is T1, human beta-Klotho (Homo sapiens, UniProt Q86Z14).
T1 sequence (Q86Z14 1-1044): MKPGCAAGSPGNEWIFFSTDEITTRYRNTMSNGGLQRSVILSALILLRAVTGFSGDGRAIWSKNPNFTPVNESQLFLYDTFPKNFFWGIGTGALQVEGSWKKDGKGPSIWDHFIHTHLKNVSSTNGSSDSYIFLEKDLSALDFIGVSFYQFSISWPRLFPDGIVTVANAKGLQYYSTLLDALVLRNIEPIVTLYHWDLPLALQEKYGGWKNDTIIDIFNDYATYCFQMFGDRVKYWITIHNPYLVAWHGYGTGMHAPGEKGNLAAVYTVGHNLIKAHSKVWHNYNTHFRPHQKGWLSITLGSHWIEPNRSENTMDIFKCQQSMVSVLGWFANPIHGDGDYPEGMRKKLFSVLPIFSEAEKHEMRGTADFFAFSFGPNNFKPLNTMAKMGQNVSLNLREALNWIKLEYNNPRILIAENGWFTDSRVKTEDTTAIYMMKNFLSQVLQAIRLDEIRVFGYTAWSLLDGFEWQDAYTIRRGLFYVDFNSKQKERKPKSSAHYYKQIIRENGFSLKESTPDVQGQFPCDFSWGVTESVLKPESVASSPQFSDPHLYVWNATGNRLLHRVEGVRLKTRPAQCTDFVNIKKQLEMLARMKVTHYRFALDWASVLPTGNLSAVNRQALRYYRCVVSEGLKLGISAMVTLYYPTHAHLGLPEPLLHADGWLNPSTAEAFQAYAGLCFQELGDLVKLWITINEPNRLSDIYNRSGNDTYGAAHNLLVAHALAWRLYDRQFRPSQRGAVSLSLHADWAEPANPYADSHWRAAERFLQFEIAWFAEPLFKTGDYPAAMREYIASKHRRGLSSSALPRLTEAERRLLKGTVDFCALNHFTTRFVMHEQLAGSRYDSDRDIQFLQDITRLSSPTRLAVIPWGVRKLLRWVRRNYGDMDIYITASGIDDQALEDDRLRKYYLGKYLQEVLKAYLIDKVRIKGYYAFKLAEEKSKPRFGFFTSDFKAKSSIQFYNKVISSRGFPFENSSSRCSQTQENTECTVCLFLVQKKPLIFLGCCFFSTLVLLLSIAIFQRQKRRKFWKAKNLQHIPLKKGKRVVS
Description: SPR analysis of the active fraction of stressed antibodies. It is filed as binding. To be noted: 21 days. The method, then:
Analysis of the active fraction of stressed antibodies was performed by SPR using the same Fc capture assay set up as described above for the affinity determination. In this case the association and dissociation times for human beta-Klotho were set to 240 sec and 300 sec, respectively. The active fraction of the samples was calculated as the ratio of binding signal for human beta-Klotho and the Fc capture signal of the antibody, normalized to the active fraction of the unstressed control samples. Mean values from three experiments were calculated.

Data set [1] in a line: Capillary isoelectric focusing (cIEF). The data set is classed as physicochemical. The method, then: Charge heterogeneity of the antibody samples was determined by capillary isoelectric focusing (cIEF) using a Maurice C device (Protein Simple). The samples were prepared by the cIEF protocol given by the manufacturer with an ampholyte mix 3-10 (Protein Simple) and peptide pl markers of 5.85 and 9.0 (Protein Simple). cIEF runs were analyzed using Compass Software v2.1.0 (Protein Simple).

The nature of data set [2]: In vivo PK in transgenic humanized FcRn mice (Tg32). To be noted: 0.3 mg/kg single IV, plasma, noncompartmental analysis. The method, then: In vivo PK studies were conducted in transgenic humanized FcRn mice (Tg32). For these studies, no GLP compliance was claimed.
Data set [3] deals with cynomolgus monkey beta-Klotho. Description: SPR binding affinity and kinetics to cynomolgus monkey beta-Klotho (Biacore 8K, anti-human Fc capture). The following applies: 1:1 binding model, read-out: KD monkey KLB. The arrangement: species or system Cynomolgus monkey (Macaca fascicularis). The method, then:
Binding affinity and kinetics were measured on a Biacore 8K instrument (GE Healthcare). For the affinity capture of the diluted mAb sample, an anti-human Fc antibody (human antibody capture kit, GE Healthcare) was immobilized on all eight channels of a series S CM5 sensor chip (GE Healthcare) to approximately 10.000 RU. The anti-beta-Klotho antibodies were diluted into HBS-EP+ assay buffer (GE Healthcare) to 0.04 μg/mL. The antibodies were injected in the sample compartment, whereas the reference compartment was used without captured antibody. […] For the antigen inject the flow rate was adjusted to 60 μL/min with an association time of 180 sec and a dissociation time of 1800 sec. The maximum binding signal of beta-Klotho was in the range of 30 RU. At the end of each cycle an inject of regeneration solution, supplied with human antibody capture kit (GE Healthcare), supplemented with 10% non-specific binding reducer (GE Healthcare), for 1 min at 30 μL/min to remove antibody and antigen was performed. Binding kinetics data were evaluated with a 1:1 binding model using the Biacore 8K Evaluation Software version 1.1.1.7442 (GE Healthcare).
For interaction analysis with human beta-klotho, mAbs were captured via an anti-human Fc antibody immobilized on a series S CM5 sensor chip (human antibody capture kit, GE Healthcare). […] Binding kinetics data were evaluated with a 1:1 binding model using the Biacore 8K Evaluation Software version 1.1.1.7442 (GE Healthcare). For interaction analysis with Cynomolgus monkey beta-klotho, mAbs were captured via an anti-human Fc antibody immobilized on a series S CM5 sensor chip (human antibody capture kit, GE Healthcare). […] Binding kinetics data were evaluated with a 1:1 binding model using the Biacore 8K Evaluation Software version 1.1.1.7442 (GE Healthcare). Exemplary sensorgrams for the interaction are shown in FIG. 7 (human KLB) and 8 (monkey KLB), as well as in Table G.
(SPR reads the build-up and loss of mass on a sensor chip optically.)

6 substances from patent publication US20250115669A1, “FGFR1/KLB Targeting Agonistic Antigen-Binding Proteins and Conjugates Thereof with GLP-1R Agonistic Peptides” (SANOFI, priority 2020, published 2025) can be followed below.

Consider “Ab0351: IgG4 PE; 16H7 VL (N25S, D49E, D50E, D91E, N93E); 16H7 VH (M34V, I83T, D109E); HC SEQ ID NO: 40, LC SEQ ID NO: 47”, for which the “SPR rel. active fraction” value worked out at 95% with human beta-Klotho (pH 5, 40° C.); 92% in the data set with human beta-Klotho (pH 6, 40° C.); 75% in the data set with human beta-Klotho (pH 8, 40° C.). Also, the “Charge homogeneity cIEF % main peak” value in data set [1] is recorded as 72.6%. Moreover, in data set [1], the “Charge homogeneity cIEF Number of peaks” value was determined as 4. Further, the “Charge homogeneity cIEF pI” value in data set [1] turned out to be 6.7. Also, the “cIEF % Main peak” value in data set [1] (pH 5, 40° C., d 21) is given as 59%; in data set [1] (pH 5, d 0), 72%; in data set [1] (pH 6, 40° C., d 21), 58%; in data set [1] (pH 6, d 0), 73%; in data set [1] (pH 8, 40° C., d 21) it was 15%; in data set [1] (pH 8, d 0), 71%. Besides, the “cIEF Number of peaks” value in data set [1] (pH 5, 40° C., d 21) is reported as 5; in data set [1] (pH 5, d 0), 4; in data set [1] (pH 6, 40° C., d 21) it was 4; in data set [1] (pH 6, d 0), 4; in data set [1] (pH 8, 40° C., d 21), 5; in data set [1] (pH 8, d 0) it was 4. Also, in data set [2], the t½ is 14.2 days.

Take “Ab0428: IgG1 NNAS; 16H7 VL (N25S, D49S, D50E, D91E, N93E); 16H7 VH (M34V, I83T, D109E); HC SEQ ID NO: 41, LC SEQ ID NO: 48”: in data set [3], the Kd worked out at 2.54 nM. In addition, the “SPR rel. active fraction” value stood at 94% in the data set with human beta-Klotho (pH 5, 40° C.); 93% in the data set with human beta-Klotho (pH 6, 40° C.); 79% with human beta-Klotho (pH 8, 40° C.). Also, the “Charge homogeneity cIEF % main peak” value in data set [1] is 20.4%. In addition, the “Charge homogeneity cIEF Number of peaks” value in data set [1] was found to be 8. Further, the “Charge homogeneity cIEF pI” value in data set [1] is reported as 7.3-8.0. Also, the “cIEF % Main peak” value in data set [1] (pH 5, 40° C., d 21) was 15%; in data set [1] (pH 5, d 0) it was 21%; in data set [1] (pH 6, 40° C., d 21), 21%; in data set [1] (pH 6, d 0) it was 20%; in data set [1] (pH 8, 40° C., d 21), 11%; in data set [1] (pH 8, d 0), 21%. In addition, the “cIEF Number of peaks” value was determined as 8 in data set [1] (pH 5, 40° C., d 21); 8 in data set [1] (pH 5, d 0); 8 in data set [1] (pH 6, 40° C., d 21); 8 in data set [1] (pH 6, d 0); 9 in data set [1] (pH 8, 40° C., d 21); 9 in data set [1] (pH 8, d 0). Also, the t½ in data set [2] stood at 13.8 days.

In the case of “16H7: anti FGFR1c/KLB monoclonal antibody of WO 2011/071783, IgG2 backbone; HC SEQ ID NO: 1, LC SEQ ID NO: 2 [Ab 16H7]”, the dissociation constant (Kd) in data set [3] came out at 0.428 nM. In data set [2], this substance yielded a t½ of 13 days.

With “Ab0331: IgG4 PE; 16H7 VL (N25S, D49S, D50E, D91E, N93E); 16H7 VH (M34V, I83T, D109E); HC SEQ ID NO: 38, LC SEQ ID NO: 45”, the Kd in data set [3] came out at 3.49 nM. Besides, the “SPR rel. active fraction” value is on record as 97% in the data set with human beta-Klotho (pH 5, 40° C.); 91% with human beta-Klotho (pH 6, 40° C.); 78% with human beta-Klotho (pH 8, 40° C.). Moreover, the “Charge homogeneity cIEF % main peak” value in data set [1] was found to be 73%. Moreover, the “Charge homogeneity cIEF Number of peaks” value in data set [1] is given as 5. Further, the “Charge homogeneity cIEF pI” value in data set [1] is 6.9. Also, the “cIEF % Main peak” value was found to be 59% in data set [1] (pH 5, 40° C., d 21); 73% in data set [1] (pH 5, d 0); 57% in data set [1] (pH 6, 40° C., d 21); 73% in data set [1] (pH 6, d 0); 14% in data set [1] (pH 8, 40° C., d 21); 72% in data set [1] (pH 8, d 0). Besides, the “cIEF Number of peaks” value amounted to 5 in data set [1] (pH 5, 40° C., d 21); 5 in data set [1] (pH 5, d 0); 4 in data set [1] (pH 6, 40° C., d 21); 5 in data set [1] (pH 6, d 0); 6 in data set [1] (pH 8, 40° C., d 21); 5 in data set [1] (pH 8, d 0). The substance further had a t½ in data set [2] of 14.9 days.

Regarding “Ab0429: IgG1 NNAS; 16H7 VL (N25S, D49S, D50A, D91E, N93E); 16H7 VH (M34V, I83T, D109E); HC SEQ ID NO: 42, LC SEQ ID NO: 49”, in data set [3], the Kd is 2.2 nM. The “SPR rel. active fraction” value is listed as 94% with human beta-Klotho (pH 5, 40° C.); 92% with human beta-Klotho (pH 6, 40° C.); 77% in the data set with human beta-Klotho (pH 8, 40° C.). The “Charge homogeneity cIEF % main peak” value in data set [1] is recorded as 21.3%. Also, the “Charge homogeneity cIEF Number of peaks” value in data set [1] is given as 9. In addition, the “Charge homogeneity cIEF pI” value in data set [1] was 7.5-8.5. Besides, the “cIEF % Main peak” value amounted to 20% in data set [1] (pH 5, 40° C., d 21); 21% in data set [1] (pH 5, d 0); 23% in data set [1] (pH 6, 40° C., d 21); 21% in data set [1] (pH 6, d 0); 9.7% in data set [1] (pH 8, 40° C., d 21); 21% in data set [1] (pH 8, d 0). For the same substance, the “cIEF Number of peaks” value in data set [1] (pH 5, 40° C., d 21) is given as 9; in data set [1] (pH 5, d 0) it was 8; in data set [1] (pH 6, 40° C., d 21), 8; in data set [1] (pH 6, d 0) it was 9; in data set [1] (pH 8, 40° C., d 21), 10; in data set [1] (pH 8, d 0) it was 8. In data set [2], this substance registered a t½ of 13.9 days.

Turning to “Ab0430: IgG1 NNAS; 16H7 VL (N25S, D49E, D50E, D91E, N93E); 16H7 VH (M34V, I83T, D109E); HC SEQ ID NO: 43, LC SEQ ID NO: 50”, in data set [3], the equilibrium dissociation constant (Kd) was determined as 2.96 nM. For the same substance, the “SPR rel. active fraction” value amounted to 94% with human beta-Klotho (pH 5, 40° C.); 92% with human beta-Klotho (pH 6, 40° C.); 75% with human beta-Klotho (pH 8, 40° C.). Moreover, the “Charge homogeneity cIEF % main peak” value in data set [1] is on record as 21.7%. For the same substance, in data set [1], the “Charge homogeneity cIEF Number of peaks” value came out at 8. Moreover, in data set [1], the “Charge homogeneity cIEF pI” value was 7.2-7.9. Besides, the “cIEF % Main peak” value in data set [1] (pH 5, 40° C., d 21) came out at 21%; in data set [1] (pH 5, d 0), 22%; in data set [1] (pH 6, 40° C., d 21), 20%; in data set [1] (pH 6, d 0) it was 22%; in data set [1] (pH 8, 40° C., d 21), 4.4%; in data set [1] (pH 8, d 0), 22%. Also, the “cIEF Number of peaks” value in data set [1] (pH 5, 40° C., d 21) was determined as 8; in data set [1] (pH 5, d 0), 9; in data set [1] (pH 6, 40° C., d 21), 9; in data set [1] (pH 6, d 0), 8; in data set [1] (pH 8, 40° C., d 21) it was 11; in data set [1] (pH 8, d 0), 9. The same substance showed a t½ in data set [2] of 15.7 days.

Usually t½ stands for how long it takes for the measured level to halve. A word on the Kd: it is the equilibrium constant for the complex coming apart.
